Reference: US20170369574A1
“And” between values parts separate entries of the source, which are not always exact repeats. Equal entries are not always repeated.

Target: CD64 (FcγRI) (human) (UniProt P12314)
Assay: cell-based or functional assay

Sequence of UniProt P12314 (P12314 16-374): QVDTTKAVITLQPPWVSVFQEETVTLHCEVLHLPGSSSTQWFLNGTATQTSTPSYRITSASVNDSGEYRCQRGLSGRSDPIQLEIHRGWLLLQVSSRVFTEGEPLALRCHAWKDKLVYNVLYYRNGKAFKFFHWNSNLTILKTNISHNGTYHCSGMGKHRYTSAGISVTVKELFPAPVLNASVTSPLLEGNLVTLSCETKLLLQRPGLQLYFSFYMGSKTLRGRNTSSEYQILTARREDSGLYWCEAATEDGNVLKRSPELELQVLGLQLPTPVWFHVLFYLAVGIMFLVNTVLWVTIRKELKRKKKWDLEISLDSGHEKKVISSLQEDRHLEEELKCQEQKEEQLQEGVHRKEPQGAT
Sequence of H22(scFv)-Ang (chain): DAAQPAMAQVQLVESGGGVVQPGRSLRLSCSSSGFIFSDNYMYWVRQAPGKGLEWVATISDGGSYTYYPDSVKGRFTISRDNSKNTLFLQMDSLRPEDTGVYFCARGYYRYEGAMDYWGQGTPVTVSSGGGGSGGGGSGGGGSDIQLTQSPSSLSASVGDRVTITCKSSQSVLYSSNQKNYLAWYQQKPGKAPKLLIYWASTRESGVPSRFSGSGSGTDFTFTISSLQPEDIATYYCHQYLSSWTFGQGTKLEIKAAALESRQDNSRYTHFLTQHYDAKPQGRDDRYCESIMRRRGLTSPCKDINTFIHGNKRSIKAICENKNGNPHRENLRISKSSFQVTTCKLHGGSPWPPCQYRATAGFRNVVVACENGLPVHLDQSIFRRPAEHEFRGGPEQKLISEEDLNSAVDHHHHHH

| IC50/EC50, XTT growth inhibition, HL-60 cells | Molecule | IC50/EC50, XTT growth inhibition, U937 cells [nM] | IC50/EC50, XTT growth inhibition, hM1φ |
| --- | --- | --- | --- |
| 0.04 nM | H22(scFv)-MAP | – | – |
| 2.4 nM and 5.7 nM | GBR201K-H22(scFv) (scFv) HIDDDDKIIGGHEAKPHSRPYMAFLMIWDQKSLKRCGGFLIRDDFVLTAAHCWGSSINVTLGAHNIKEQEPTQQFIPVKRAIPHPAYNPKNFSNDIMLLQLERKAKRTRAVQPLRLPSNKAQVKPGQTCSVAGWGQTAPLGKHSHTLQEVKMTVQEDRKCESDLRHYYDSTIELCVGDPEIKKTSFKGDSGGPLVCNKVAQGIVSYGKNNGMPPRACTKVSSFVHWIKKTMKRYAEHEGDAAQPAMAQVQLVESGGGVVQPGRSLRLSCSSSGFIFSDNYMYWVRQAPGKGLEWVATISDGGSYTYYPDSVKGRFTISRDNSKNTLFLQMDSLRPEDTGVYFCARGYYRYEGAMDYWGQGTPVTVSSGGGGSGGGGSGGGGSDIQLTQSPSSLSASVGDRVTITCKSSQSVLYSSNQKNYLAWYQQKPGKAPKLLIYWASTRESGVPSRFSGSGSGTDFTFTISSLQPEDIATYYCHQYLSSWTFGQGTKLEIKAAAGPHHHHHH | – | – |
| – | GB-H22(scFv) (scFv) HIDDDDKIIGGHEAKPHSRPYMAFLMIWDQKSLKRCGGFLIRDDFVLTAAHCWGSSINVTLGAHNIKEQEPTQQFIPVKRAIPHPAYNPKNFSNDIMLLQLERKAKRTRAVQPLRLPSNKAQVKPGQTCSVAGWGQTAPLGKHSHTLQEVKMTVQEDRKCESDLRHYYDSTIELCVGDPEIKKTSFKGDSGGPLVCNKVAQGIVSYGRNNGMPPRACTKVSSFVHWIKKTMKRYGSKLAEHEGDAAQPAMAQVQLVESGGGVVQPGRSLRLSCSSSGFIFSDNYMYWVRQAPGKGLEWVATISDGGSYTYYPDSVKGRFTISRDNSKNTLFLQMDSLRPEDTGVYFCARGYYRYEGAMDYWGQGTPVTVSSGGGGSGGGGSGGGGSDIQLTQSPSSLSASVGDRVTITCKSSQSVLYSSNQKNYLAWYQQKPGKAPKLLIYWASTRESGVPSRFSGSGSGTDFTFTISSLQPEDIATYYCHQYLSSWTFGQGTKLEIKAAAGPHHHHHH | – | 0.414 nM and 0.14 nM |

| Molecule | IC50/EC50, XTT growth inhibition, HL-60 cells | IC50/EC50, XTT growth inhibition, U937 cells [nM] | IC50/EC50, XTT growth inhibition, hM1φ |
| --- | --- | --- | --- |
| H22(scFv)-Ang | 10 nM | 0.2 | 0.29 nM and 0.108 nM |
